IntAct's records for PubMed 16326715

B1: Neutrophil cytosol factor 1 (Homo sapiens), P14598 (parent)
chain: MGDTFIRHIALLGFEKRFVPSQHYVYMFLVKWQDLSEKVVYRRFTEIYEFHKTLKEMFPIEAGAINPENRIIPHLPAPKWFDGQRAAENRQGTLTEYCSTLMSLPTKISRCPHLLDFFKVRPDDLKLPTDNQTKKPETYLMPKDGKSTATDITGPIILQTYRAIANYEKTSGSEMALSTGDVVEVVEKSESGWWFCQMKAKRGWIPASFLEPLDSPDETEDPEPNYAGEPYVAIKAYTAVEGDEVSLLEGEAVEVIHKLLDGWWVIRKDDVTGYFPSMYLQKSGQDVSQAQRQIKRGAPPRRSSIRNAHSIHQRSRKRLSQDAYRRNSVRFLQQRRRQARPGPQSPGSPLEEERQTQRSKPQPAVPPRPSADLILNRCSESTKRKLASAV
partner: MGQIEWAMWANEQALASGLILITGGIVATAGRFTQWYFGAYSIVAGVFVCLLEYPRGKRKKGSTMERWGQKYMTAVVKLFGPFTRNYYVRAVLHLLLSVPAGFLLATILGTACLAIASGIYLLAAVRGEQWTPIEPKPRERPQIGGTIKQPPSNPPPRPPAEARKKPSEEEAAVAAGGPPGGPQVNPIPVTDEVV
B2: Cytochrome b-245 light chain (Homo sapiens), P13498 (parent)
chain: B1 partner

Variants of: B1
Details: with cy24a_human CYBA, P13498

Row | Variant | effect of a mutation on the interaction
1 | MGDTFIRHIALLGFEKRFVPSQHYVYMFLVKWQDLSEKVVYRRFTEIYEFHKTLKEMFPIEAGAINPENRIIPHLPAPKWFDGQRAAENRQGTLTEYCSTLMSLPTKISRCPHLLDFFKVRPDDLKLPTDNQTKKPETYLMPKDGKSTATDITGPIILQTYRAAANYEKTSGSEMALSTGDVVEVVEKSESGWWFCQMKAKRGWIPASFLEPLDSPDETEDPEPNYAGEPYVAIKAYTAVEGDEVSLLEGEAVEVIHKLLDGWWVIRKDDVTGYFPSMYLQKSGQDVSQAQRQIKRGAPPRRSSIRNAHSIHQRSRKRLSQDAYRRNSVRFLQQRRRQARPGPQSPGSPLEEERQTQRSKPQPAVPPRPSADLILNRCSESTKRKLASAV [I164A] | decreasing interaction
2 | MGDTFIRHIALLGFEKRFVPSQHYVYMFLVKWQDLSEKVVYRRFTEIYEFHKTLKEMFPIEAGAINPENRIIPHLPAPKWFDGQRAAENRQGTLTEYCSTLMSLPTKISRCPHLLDFFKVRPDDLKLPTDNQTKKPETYLMPKDGKSTATDITGPIILQTYRAIANYEKTSGSEMALSTGDVVEVVEKSESGWWFCQMKAKRGWIPASALEPLDSPDETEDPEPNYAGEPYVAIKAYTAVEGDEVSLLEGEAVEVIHKLLDGWWVIRKDDVTGYFPSMYLQKSGQDVSQAQRQIKRGAPPRRSSIRNAHSIHQRSRKRLSQDAYRRNSVRFLQQRRRQARPGPQSPGSPLEEERQTQRSKPQPAVPPRPSADLILNRCSESTKRKLASAV [F209A] | decreasing interaction

Variants of: B2
Details: with ncf1_human NCF1, P14598

Row | Variant | effect of a mutation on the interaction
3 | MGQIEWAMWANEQALASGLILITGGIVATAGRFTQWYFGAYSIVAGVFVCLLEYPRGKRKKGSTMERWGQKYMTAVVKLFGPFTRNYYVRAVLHLLLSVPAGFLLATILGTACLAIASGIYLLAAVRGEQWTPIEPKPRERPQIGGTIKQPPSNPPPRPPAEGGKKPSEEEAAVAAGGPPGGPQVNPIPVTDEVV | decreasing interaction
